Values quoted from earlier work, collected in article PMC4847942.
Read-outs that look alike come from different tables or passages of the source.

Legend:
Bcl-XL (Homo sapiens) [1] = target: Bcl-XL (Homo sapiens) (UniProt Q07817)
Bcl-XL (Homo sapiens) [2] = target: Bcl-XL (Homo sapiens) (UniProt Q07817); remark: listed apart in the source

UniProt Q07817, sequence (Q07817 whole entry): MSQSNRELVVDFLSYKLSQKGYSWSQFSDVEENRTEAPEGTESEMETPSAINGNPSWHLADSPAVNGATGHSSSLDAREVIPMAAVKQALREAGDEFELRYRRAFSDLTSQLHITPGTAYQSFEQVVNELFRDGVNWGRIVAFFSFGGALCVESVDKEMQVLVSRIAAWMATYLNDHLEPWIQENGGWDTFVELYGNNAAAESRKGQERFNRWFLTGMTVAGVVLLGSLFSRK

Kd (Bcl-XL (Homo sapiens) [1]) [nM] | Kd (Bcl-XL (Homo sapiens) [2]) [nM] | Substance
269 | – | Bid BH3 helix BH3 (from UniProt P55957)
– | 39 | stapled Bid BH3 helix BH3 (from UniProt P55957)
